# In patent US20090178146:
# Tests used:
# [1] = test system: GST-fused SP-3 peptide of NFAT1 (amino acids 264-295) with Ser>Ala substitutions in the serines phosphorylated in cells
# [2] = test system: GST-fused peptide corresponding to the SP-3 motif (amino acids 264-295) of NFAT1, wild type
substance,measurement,setting,value
"recombinant DYRK1A protein kinase (Upstate Biotechnology), bacterially expressed","in vitro kinase assay with recombinant kinase, phosphorylation of GST-peptide",[1],neither kinase phosphorylated an SP-3 peptide with Ser>Ala substitutions in the specific serine residues known to be phosphorylated in cells
same,"in vitro kinase assay with recombinant kinase, phosphorylation of GST-peptide",[2],DYRK2 and DYRK1A both displayed strong and selective kinase activity towards the SP-3 motif of NFAT1
